Results reported in publication PMC5695660 (Nature chemical biology, 2013).
Read-outs that look alike come from different tables or passages of the source.

B4: Cdc37 (human, full length), bacterially expressed (natural protein, UniProt Q16543 1-378, looked up)
chain: MVDYSVWDHIEVSDDEDETHPNIDTASLFRWRHQARVERMEQFQKEKEELDRGCRECKRKVAECQRKLKELEVAEGGKAELERLQAEAQQLRKEERSWEQKLEEMRKKEKSMPWNVDTLSKDGFSKSMVNTKPEKTEEDSEEVREQKHKTFVEKYEKQIKHFGMLRRWDDSQKYLSDNVHLVCEETANYLVIWCIDLEVEEKCALMEQVAHQTIVMQFILELAKSLKVDPRACFRQFFTKIKTADRQYMEGFNDELEAFKERVRGRAKLRIEKAMKEYEEEERKKRLGPGGLDPVEVYESLPEELQKCFDVKDVQMLQDAISKMDPTDAKYHMQRCIDSGLWVPNSKASEAKEGEEAGPGDPLLEAVPKTGDEKDVSV

How the values were obtained:
[1] = target: Cdc37 (human, full length), bacterially expressed (human) (UniProt Q16543); experiment: ITC
Cak1p = target: T1, Cak1p (Saccharomyces cerevisiae, UniProt P43568); experiment: isothermal titration calorimetry; assay type: binding
T1 sequence (P43568 1-368): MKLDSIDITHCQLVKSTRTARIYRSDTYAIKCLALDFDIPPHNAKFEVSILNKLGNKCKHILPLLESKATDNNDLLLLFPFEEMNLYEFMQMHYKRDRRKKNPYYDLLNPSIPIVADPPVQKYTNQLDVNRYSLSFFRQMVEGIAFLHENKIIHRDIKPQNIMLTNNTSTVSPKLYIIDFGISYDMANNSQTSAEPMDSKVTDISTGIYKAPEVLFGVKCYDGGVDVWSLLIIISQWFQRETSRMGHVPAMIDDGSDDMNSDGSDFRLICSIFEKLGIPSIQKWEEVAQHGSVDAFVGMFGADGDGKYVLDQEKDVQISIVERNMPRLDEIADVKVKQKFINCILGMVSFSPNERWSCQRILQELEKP

[2] = target: B4; experiment: SEC
budding yeast Cdc37p = target: T2, budding yeast Cdc37p (budding yeast, UniProt P06101 1-506); experiment: SEC
T2 sequence (looked up): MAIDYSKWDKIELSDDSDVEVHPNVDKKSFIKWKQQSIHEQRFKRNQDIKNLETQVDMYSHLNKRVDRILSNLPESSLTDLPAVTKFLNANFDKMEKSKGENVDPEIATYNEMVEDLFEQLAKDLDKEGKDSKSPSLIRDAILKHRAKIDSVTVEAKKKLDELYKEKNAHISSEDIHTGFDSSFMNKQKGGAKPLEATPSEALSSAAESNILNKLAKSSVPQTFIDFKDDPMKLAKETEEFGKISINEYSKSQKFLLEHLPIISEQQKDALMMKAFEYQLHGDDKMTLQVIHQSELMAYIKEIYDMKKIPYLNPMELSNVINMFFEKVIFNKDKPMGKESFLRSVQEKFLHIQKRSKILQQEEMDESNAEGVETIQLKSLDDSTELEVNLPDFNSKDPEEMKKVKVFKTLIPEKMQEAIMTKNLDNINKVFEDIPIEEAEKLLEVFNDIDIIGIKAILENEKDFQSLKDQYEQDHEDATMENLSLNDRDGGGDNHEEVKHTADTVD

[3] = target: T3, Hsp90β, bacterially expressed (human, UniProt P08238 1-724); experiment: SEC
[4] = target: T3, Hsp90β, bacterially expressed; experiment: SEC; remark: listed apart in the source

T3 sequence (P08238 whole entry): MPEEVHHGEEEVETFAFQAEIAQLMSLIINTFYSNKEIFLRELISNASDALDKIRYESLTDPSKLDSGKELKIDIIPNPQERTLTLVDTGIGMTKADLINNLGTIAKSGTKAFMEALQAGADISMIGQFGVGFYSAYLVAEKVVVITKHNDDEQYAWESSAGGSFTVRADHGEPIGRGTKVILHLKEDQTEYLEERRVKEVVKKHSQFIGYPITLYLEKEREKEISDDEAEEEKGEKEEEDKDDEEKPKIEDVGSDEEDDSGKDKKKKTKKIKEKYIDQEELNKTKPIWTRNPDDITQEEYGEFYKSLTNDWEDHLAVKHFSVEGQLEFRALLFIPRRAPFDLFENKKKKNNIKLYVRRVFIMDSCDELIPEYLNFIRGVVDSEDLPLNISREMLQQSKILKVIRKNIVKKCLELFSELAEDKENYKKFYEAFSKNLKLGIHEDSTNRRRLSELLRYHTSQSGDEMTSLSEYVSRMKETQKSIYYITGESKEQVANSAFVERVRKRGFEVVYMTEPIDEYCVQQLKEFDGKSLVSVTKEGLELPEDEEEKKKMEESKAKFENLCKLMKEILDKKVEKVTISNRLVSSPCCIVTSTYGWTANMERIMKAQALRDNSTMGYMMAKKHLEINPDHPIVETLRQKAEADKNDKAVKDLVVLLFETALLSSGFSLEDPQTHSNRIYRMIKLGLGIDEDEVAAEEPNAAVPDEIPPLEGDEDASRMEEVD

solubilised BRaf V600E kinase domain (sBRafV600E), bacterially expressed (from UniProt P15056 457-717) (domain or fragment)
Kd [1]: 200 nM

NC1=N/C(=C2/CCNC(=O)c3[nH]ccc32)C(=O)N1 [debromohymenialdisine]
Kd (Cak1p): ~1700 nM

B1: BRaf kinase domain (wild-type, native; amino acids 433-726), Sf9 (domain or fragment, human, UniProt P15056 433-726, looked up)
chain: EDRNRMKTLGRRDSSDDWEIPDGQITVGQRIGSGSFGTVYKGKWHGDVAVKMLNVTAPTPQQLQAFKNEVGVLRKTRHVNILLFMGYSTKPQLAIVTQWCEGSSLYHHLHIIETKFEMIKLIDIARQTAQGMDYLHAKSIIHRDLKSNNIFLHEDLTVKIGDFGLATVKSRWSGSHQFEQLSGSILWMAPEVIRMQDKNPYSFQSDVYAFGIVLYELMTGQLPYSNINNRDQIIFMVGRGYLSPDLSKVRSNCPKAMKRLMAECLKKKRDERPLFPQILASIELLARSLPKIHR
binding result [2]: binds

B2: Cak1p, cyclin-dependent kinase activating kinase from budding yeast (enzyme, UniProt P43568 1-368, looked up)
chain: MKLDSIDITHCQLVKSTRTARIYRSDTYAIKCLALDFDIPPHNAKFEVSILNKLGNKCKHILPLLESKATDNNDLLLLFPFEEMNLYEFMQMHYKRDRRKKNPYYDLLNPSIPIVADPPVQKYTNQLDVNRYSLSFFRQMVEGIAFLHENKIIHRDIKPQNIMLTNNTSTVSPKLYIIDFGISYDMANNSQTSAEPMDSKVTDISTGIYKAPEVLFGVKCYDGGVDVWSLLIIISQWFQRETSRMGHVPAMIDDGSDDMNSDGSDFRLICSIFEKLGIPSIQKWEEVAQHGSVDAFVGMFGADGDGKYVLDQEKDVQISIVERNMPRLDEIADVKVKQKFINCILGMVSFSPNERWSCQRILQELEKP
binding result (budding yeast Cdc37p): binds

B3: Cdc37 phosphorylated on Ser13 (natural protein, human, UniProt Q16543 1-378, looked up)
chain: MVDYSVWDHIEVSDDEDETHPNIDTASLFRWRHQARVERMEQFQKEKEELDRGCRECKRKVAECQRKLKELEVAEGGKAELERLQAEAQQLRKEERSWEQKLEEMRKKEKSMPWNVDTLSKDGFSKSMVNTKPEKTEEDSEEVREQKHKTFVEKYEKQIKHFGMLRRWDDSQKYLSDNVHLVCEETANYLVIWCIDLEVEEKCALMEQVAHQTIVMQFILELAKSLKVDPRACFRQFFTKIKTADRQYMEGFNDELEAFKERVRGRAKLRIEKAMKEYEEEERKKRLGPGGLDPVEVYESLPEELQKCFDVKDVQMLQDAISKMDPTDAKYHMQRCIDSGLWVPNSKASEAKEGEEAGPGDPLLEAVPKTGDEKDVSV
modifications: phosphoserine at 13
binding result [3]: binds

B4
binding result [4]: binds
